Our source for the transactivation of the UAS-Firefly Luciferase reporter by gal4-pgc1α values is US20110059051A1.

This experiment has as its target Gal4-DNA binding domain fusion with PGC-1α (yeast) (UniProt P04386). The experiment is described as follows: cell-based or functional assay.

“PRDM16 expressed from pcDNA-Prdm16 plasmid in cos7 cells (from UniProt A2A935 1-1275)”: the transactivation of the UAS-Firefly Luciferase reporter by gal4-pgc1α stood at 200 fold.
